Biological target: T1, GST-SIK1ΔN (Arabidopsis thaliana, UniProt O24527 249-836)
T1 sequence (looked up): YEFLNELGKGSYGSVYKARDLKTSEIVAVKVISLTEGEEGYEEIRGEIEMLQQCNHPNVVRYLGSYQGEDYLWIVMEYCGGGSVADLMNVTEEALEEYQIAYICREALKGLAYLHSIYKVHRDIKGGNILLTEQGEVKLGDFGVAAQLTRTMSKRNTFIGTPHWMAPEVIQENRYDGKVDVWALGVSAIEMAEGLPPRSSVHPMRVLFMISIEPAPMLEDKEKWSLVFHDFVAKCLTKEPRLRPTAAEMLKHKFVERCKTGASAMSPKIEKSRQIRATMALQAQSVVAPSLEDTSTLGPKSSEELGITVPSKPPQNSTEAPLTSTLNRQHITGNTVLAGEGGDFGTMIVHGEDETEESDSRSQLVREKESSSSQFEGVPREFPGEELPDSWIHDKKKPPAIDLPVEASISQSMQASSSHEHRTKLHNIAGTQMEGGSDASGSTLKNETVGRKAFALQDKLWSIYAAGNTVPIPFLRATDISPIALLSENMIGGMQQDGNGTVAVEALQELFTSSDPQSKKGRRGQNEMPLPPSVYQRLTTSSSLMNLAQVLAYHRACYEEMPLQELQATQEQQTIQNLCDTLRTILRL
Test: pull-down

- binding result: binds
B1: MBP-BIK1 (enzyme, Arabidopsis thaliana, UniProt O48814 1-395, looked up)
chain: MGSCFSSRVKADIFHNGKSSDLYGLSLSSRKSSSTVAAAQKTEGEILSSTPVKSFTFNELKLATRNFRPDSVIGEGGFGCVFKGWLDESTLTPTKPGTGLVIAVKKLNQEGFQGHREWLTEINYLGQLSHPNLVKLIGYCLEDEHRLLVYEFMQKGSLENHLFRRGAYFKPLPWFLRVNVALDAAKGLAFLHSDPVKVIYRDIKASNILLDADYNAKLSDFGLARDGPMGDLSYVSTRVMGTYGYAAPEYMSSGHLNARSDVYSFGVLLLEILSGKRALDHNRPAKEENLVDWARPYLTSKRKVLLIVDNRLDTQYLPEEAVRMASVAVQCLSFEPKSRPTMDQVVRALQQLQDNLGKPSQTNPVKDTKKLGFKTGTTKSSEKRFTQKPFGRHLV
